Substrate in assay [1]: OPN antigen peptide YGLRSKS labeled with biotin (mouse and human (same sequence around the thrombin cleavage site))
The assay is described as follows: direct ELISA, biotinylated peptide on avidin-coated plate, purified IgG serially diluted, 4-parameter fit.

Assay [2] concerns the target recombinant human osteopontin protein (GST-OPN-his, purified in house) (human) (UniProt P10451). The assay is described as follows: cell-based or functional assay.

Where a chain is given by its changes, count along the chain named.

Chain of UniProt P10451 (P10451 17-314): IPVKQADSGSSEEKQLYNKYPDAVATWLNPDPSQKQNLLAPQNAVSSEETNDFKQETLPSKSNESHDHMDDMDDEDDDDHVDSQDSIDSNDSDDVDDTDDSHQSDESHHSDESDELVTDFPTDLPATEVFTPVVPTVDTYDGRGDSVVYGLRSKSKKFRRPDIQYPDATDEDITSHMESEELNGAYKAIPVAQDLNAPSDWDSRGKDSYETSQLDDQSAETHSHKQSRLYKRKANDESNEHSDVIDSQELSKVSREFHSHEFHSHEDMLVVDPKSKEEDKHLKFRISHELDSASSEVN

B1: A2 rabbit monoclonal anti-osteopontin antibody (antibody, V domains shown)
VH: QSVKESEGGLFKPTDTLTLTCKASGFTVSSYDMGWLRQAPGNGLESIGAIGSDGSEYYVSWARGRTAITRNTNQNTVTLKMTSLTAADTATYFCARDSHYSYGYDYDIWGPGTLVTVSS
VL: QVLTQTPSPVSAAVGGTVSISCQSSQSIYSNYLSWYQQKPGQPPKLLIYYASTLASGVPSRFKGSGSGTQFTLTISGVQCDDAATYYCQGTYYVTGWYDAFGGGTEVVVKG
In general, EC50 refers to the midpoint of the concentration-response curve. B1: the EC50 in assay [1] worked out at 2.6 ng/mL. Moreover, the % inhibition of thrombin cleavage of human OPN-FL (OPN-R generated, OPN-R specific ELISA) in assay [2] was found to be 82%.

B2: A6 rabbit monoclonal anti-osteopontin antibody (antibody, V domains shown)
VH: B1 VH with A67T
VL: B1 VL
B2: the EC50 in assay [1] amounted to 3.2 ng/mL. Besides, in assay [2], the % inhibition of thrombin cleavage of human OPN-FL (OPN-R generated, OPN-R specific ELISA) was determined as 95.4%.

B3: G7 rabbit monoclonal anti-osteopontin antibody (antibody, V domains shown)
VH: QSVKESEGGLFKPTDTLTLTCTVSGFSLSSYGVSWVRQAPGNGLEWIGFIDKYGRTHYASWAKSRSTITRNTNENTVTLKMTSLTAADTATFLCARDDYRPAYGFDIWGPGTLVTVSS
VL: QVLTQTASPVSAAVGSTVTINCQASQSVYNNNWLSWFQQKPGQPPKQLIYGASTLPSGVSSRFKGSGSGTQFTLTISDVQCDDAATYYCLGGYHWSTADCNVFGGGTEVVVKG
Turning to B3, the EC50 in assay [1] is 93.2 ng/mL. Further, the % inhibition of thrombin cleavage of human OPN-FL (OPN-R generated, OPN-R specific ELISA) in assay [2] stood at 60.1%.

The values above are taken from patent publication US20220324956A1.
